Measurements taken from patent US10525113B2, “Micellar polypeptide vaccine having pegylated phospholipids as carrier” (INSTITUTE OF BIOPHYSICS, CHINESE ACADEMY OF SCIENCES, priority 2014, dated 2020).
Ends that are not written are not given here. * marks the point of attachment. Palmitoyl = CCCCCCCCCCCCCCCC(=O)*

How the values were obtained:
[1] = Entrapment efficiency of fatty-acidified antigenic polypeptide in PEG-PE micelle (centrifugation, rhodamine fluorescence); type: physicochemical; conditions: lipid:MPLA (w/w) 100:1
Protocol: According to the proportions shown in Table 2 and Table 3, the micelles containing different proportions of polypeptides are prepared. The preparation process is carried out in the same manner as described in Embodiment 1. The prepared micelle vaccine solutions of different proportions are subjected to 14,000 g high-speed centrifugation for 30 minutes. The undissolved free antigenic polypeptide is separated from the antigen entrapped by micelle in the solution.
The maximal excitation wavelength of the rhodamine fluorescence labeled by the polypeptide is 535 nm and the maximum emission wavelength is 590 nm.
The antigen content in the solution is detected by fluorescence spectrophotometry, and then the effective entrapment efficiency of antigenic polypeptide is calculated according to the formula (see Table 2. Table 3, line 3). It can be seen that, in the condition where the mass ratio of PEG-PE to the fatty-acid-modified polypeptide is greater than or equal to 10:1, the entrapment efficiency is about 100%.

[2] = 100 μL subcutaneous, shoulder; 0 hour to 7 days; FIG. 3
Protocol: 20 μL of 10 mg/mL DMSO stock solution of rhodamine-labeled, fatty-acidified E7 polypeptide (sequence: palmitic acid-[sequence], rhodamine labeled in amino acid K, synthesized in Jill Biochemical Co., Ltd.) is added to 1 mL of sterile water to obtain a fluorescent polypeptide solution with the concentration of 0.2 mg/mL.
10 mg of PEG-PE powder is weighed and dissolved in 1 mL of chloroform in a test tube, and 0.2 mL of solution of rhodamine-labeled, fatty-acidified E7 polypeptide in methanol (1 mg/mL) is taken such that in micelle. The solution is gently shaken according to the method in Embodiment 1 to mix evenly. Nitrogen is used to blow and dry the solution to form a uniform thin membrane. The residual organic solvent and moisture are completely removed in a vacuum drier overnight. 1 mL of sterile normal saline is added, and 53° C. water bath incubation is conducted for 30 minutes for hydrated lipid membrane. A light purple uniform transparent solution is obtained, in which the concentration of fluorescent polypeptide is 0.2 mg/mL. […]
7 mg of DPPC and 3 mg of cholesterol are dissolved in chloroform separately and then mixed in a test tube, and 0.2 mL of solution of rhodamine-labeled, fatty-acidified E7 polypeptide in methanol (1 mg/mL) is taken. […] The concentration of fluorescence polypeptide is 0.2 mg/mL. […]

[3] = water / aqueous solution
Protocol: Thus, free antigenic polypeptide can be separated from the antigenic polypeptide loaded on micelle, and then the entrapment efficiency of antigenic polypeptide is calculated based on the change in the content of the antigenic polypeptide loaded on micelle in the solution. The entrapment efficiency=the amount of antigen to be entrapped/total antigen ×100%.

Row | Substance | entrapment efficiency (%) ([1]; lipid:peptide (w/w) 1:1) | entrapment efficiency (%) ([1]; lipid:peptide (w/w) 2:1) | entrapment efficiency (%) ([1]; lipid:peptide (w/w) 5:1) | entrapment efficiency (%) ([1]; lipid:peptide (w/w) 10:1) | entrapment efficiency (%) ([1]; lipid:peptide (w/w) 20:1) | entrapment efficiency (%) ([1]; lipid:peptide (w/w) 50:1) | subcutaneous diffusion / localized retention at injection site [2] | solubility / state in water [3]
1 | palmitic acid-EQLESIINFEKLTEWKD (Palmitoyl-EQLESIINFEKLTEWKD) [OT-1 Antigenic Polypeptide] | 27.91 | 40.10 | 91.76 | 100.00 | 100.00 | 100.00 | – | –
2 | palmitic acid-GQAEPDRAHYNIVTFCCKCD (Palmitoyl-GQAEPDRAHYNIVTFCCKCD; cysteine pairing not given here) [E7 Antigenic Polypeptide, HPV16 E7 43-62 tumor-associated antigen with palmitic acid at the N-terminal] | 25.48 | 67.76 | 97.99 | 100.00 | 100.00 | 100.00 | subcutaneous localized retention at the injection site is evident | present in an aggregated form in aqueous solution
